# Assay results published in US20250073277A1, “METHODS FOR OBTAINING CARDIOMYOGENIC PRECURSOR CELLS” (University of Miami, published 2025).
# T1: human growth hormone-releasing hormone receptor (GHRHR) (human)
# T1 chain: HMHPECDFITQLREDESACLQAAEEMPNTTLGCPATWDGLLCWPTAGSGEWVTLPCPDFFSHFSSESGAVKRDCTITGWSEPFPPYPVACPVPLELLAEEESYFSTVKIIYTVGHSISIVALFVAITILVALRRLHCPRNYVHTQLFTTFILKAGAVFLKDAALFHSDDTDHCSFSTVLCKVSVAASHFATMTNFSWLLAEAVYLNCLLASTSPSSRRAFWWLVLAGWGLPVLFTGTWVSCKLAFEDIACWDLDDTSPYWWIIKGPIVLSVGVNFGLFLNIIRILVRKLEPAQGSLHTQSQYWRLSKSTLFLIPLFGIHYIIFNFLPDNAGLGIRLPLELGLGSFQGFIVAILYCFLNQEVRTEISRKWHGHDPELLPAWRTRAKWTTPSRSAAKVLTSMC
# B1: recombinant growth hormone-releasing hormone (GHRH) (ligand)
# chain: YADAIFTNSYRKVLGQLSARKLLQDIMSRQQGESNQERGARARL
# Molecular target: T1, human growth hormone-releasing hormone …
# Test: cell-based or functional assay
binder,measurement,value
B1,NKX2.5 expression in differentiating hiPSCs,2.5 fold
